Laboratory results as given in patent publication US20070048315A1.
Where “and” joins values, the source holds several entries; their conditions need not be identical. Identical values can stand only once.

Experiments:
[1] = molecular target: "N222Q" human IL-23 (elastikine sequence with Asn222 to Gln in the p40 subunit, expressed in SF9 cells) (human) (UniProt P29460); experiment: BIAcore SPR, mAb amine-coupled on CM5 chip, IL-23 in solution, 25 C
[2] = molecular target: "Bac-wt" human IL-23 (identical to elastikine human IL-23 in sequence, expressed in SF9 cells) (human) (UniProt P29460); experiment: as above

Kd [1]	Kd [2] [nM]	Binder
0.3 nM and 1 nM	10	humanized anti-human IL-23p19 antibody hum7G10 (antibody, human IgG1, kappa, V domains shown) VH: QVQLVQSGAEVKKPGASVKVSCKASGYTFTSNVMHWVRQAPGQGLEWMGYINPYNDGTKYNEKFKGRVTMTTDTSTSTAYMELRSLRSDDTAVYYCARNWDVAYWGQGTLVTVSS VL: DIQMTQSPSSLSASVGDRVTITCRASQSISDYLHWYQQKPGKAPKLLIYYASQSISGVPSRFSGSGSGTDFTLTISSLQPEDFATYYCQNGHSFPFTFGQGTKVEIKR
0.5 nM	5.1	humanized anti-human IL-23p19 antibody hum6H12 (antibody, human IgG1, kappa, V domains shown) VH: QVQLVQSGAEVKKPGASVKVSCKASGYTFNRYLIHWVRQAPGQGLEWMGYINPNNAGTNYNEKFKGRVTMTTDTSTSTAYMELRSLRSDDTAVYYCARNWDQAYWGQGTLVTVSS VL: DIQMTQSPSSLSASVGDRVTITCRASQSISDYLHWYQQKPGKAPKLLIYYTSQSISGVPSRFSGSGSGTDFTLTISSLQPEDFATYYCQNGHSFPFTFGQGTKVEIKR
